test system: Escherichia coli TOP10; experiment: shrunken log2 fold change of peptide-encoding DNA abundance (4.5 h post-induction vs induction); higher = less antimicrobial activity (less host growth inhibition); conditions: time post-induction: 4.5 h; library: site-saturation at positions 5, 18, 19, 20
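Further: peptides expressed intracellularly from a pBAD plasmid library in pooled LB shake-flask culture, induced with 0.3% L-arabinose, DNA abundance read by NGS, three biological replicates, DESeq2 with apeglm shrinkage.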

| Sequence | shrunken log2 fold change |
| --- | --- |
| RRIRWRPPRLPRPRPRPLHIPRP | -0.465 |
| RRIRARPPRLPRPRPRPMAFPRP | 0.0104 |
| RRIRVRPPRLPRPRPRPYVRPRP | -0.492 |
| RRIRVRPPRLPRPRPRPRDRPRP | 0.46 |
| RRIRVRPPRLPRPRPRPYFDPRP | -0.609 |
| RRIRVRPPRLPRPRPRPQYWPRP | -0.265 |
| RRIRLRPPRLPRPRPRPRRVPRP | 0.0457 |
| RRIRLRPPRLPRPRPRPLIDPRP | -0.258 |
| RRIRQRPPRLPRPRPRPGIQPRP | -0.056 |
| RRIRIRPPRLPRPRPRPYEFPRP | 0.00826 |
| RRIRCRPPRLPRPRPRPTQKPRP | 0.0827 |
| RRIRVRPPRLPRPRPRPNMAPRP | -0.38 |
| RRIRCRPPRLPRPRPRPHIHPRP | -0.759 |
| RRIRSRPPRLPRPRPRPEDWPRP | 0.802 |
| RRIRERPPRLPRPRPRPYHNPRP | -1.33 |
| RRIRYRPPRLPRPRPRPPWCPRP | -0.338 |
| RRIRLRPPRLPRPRPRPTPSPRP | 0.552 |
| RRIRRRPPRLPRPRPRPWTSPRP | -0.0576 |
| RRIRCRPPRLPRPRPRPEPTPRP | 0.628 |
| RRIRDRPPRLPRPRPRPTVNPRP | 0.0689 |
| RRIRHRPPRLPRPRPRPLQDPRP | -0.0821 |
| RRIRRRPPRLPRPRPRPDINPRP | -0.243 |

| Sequence | shrunken log2 fold change |
| --- | --- |
| RRIRIRPPRLPRPRPRPLANPRP | -0.145 |
| RRIRPRPPRLPRPRPRPPSQPRP | 0.334 |
| RRIRSRPPRLPRPRPRPFIGPRP | -1.15 |
| RRIRERPPRLPRPRPRPGWHPRP | 0.027 |
| RRIRPRPPRLPRPRPRPKANPRP | 0.0243 |
| RRIRIRPPRLPRPRPRPCWFPRP | -0.165 |
| RRIRERPPRLPRPRPRPFVYPRP | -0.123 |
| RRIRGRPPRLPRPRPRPWPEPRP | 0.29 |
| RRIRERPPRLPRPRPRPQVRPRP | -0.0385 |
| RRIRTRPPRLPRPRPRPPIEPRP | -0.0275 |
| RRIRVRPPRLPRPRPRPKRSPRP | 0.112 |
| RRIRERPPRLPRPRPRPMGPPRP | -0.0976 |
| RRIRGRPPRLPRPRPRPSKVPRP | -0.116 |
| RRIRVRPPRLPRPRPRPWMRPRP | 0.731 |
| RRIRVRPPRLPRPRPRPFLCPRP | -0.0159 |
| RRIRLRPPRLPRPRPRPHPGPRP | 0.242 |
| RRIRRRPPRLPRPRPRPSLEPRP | 0.232 |
| RRIRCRPPRLPRPRPRPCRTPRP | -0.168 |
| RRIRWRPPRLPRPRPRPILRPRP | -0.0505 |
| RRIRERPPRLPRPRPRPVAGPRP | 0.246 |
| RRIRHRPPRLPRPRPRPEPMPRP | 0.134 |
| RRIRIRPPRLPRPRPRPASNPRP | -0.205 |

| Sequence | shrunken log2 fold change |
| --- | --- |
| RRIRMRPPRLPRPRPRPKLKPRP | 2.65 |
| RRIRFRPPRLPRPRPRPACWPRP | 0.471 |
| RRIRIRPPRLPRPRPRPAGPPRP | 0.153 |
| RRIRFRPPRLPRPRPRPYTDPRP | -0.233 |
| RRIRVRPPRLPRPRPRPPVPPRP | 0.35 |
| RRIRFRPPRLPRPRPRPMNTPRP | 0.0693 |
| RRIRKRPPRLPRPRPRPNPRPRP | 0.228 |
| RRIRFRPPRLPRPRPRPTMYPRP | -0.459 |
| RRIRARPPRLPRPRPRPQQDPRP | 0.108 |
| RRIRRRPPRLPRPRPRPRFEPRP | 0.582 |
| RRIRTRPPRLPRPRPRPNGSPRP | -0.198 |
| RRIRPRPPRLPRPRPRPDSIPRP | -0.598 |
| RRIRIRPPRLPRPRPRPEANPRP | -0.00444 |
| RRIRWRPPRLPRPRPRPVLCPRP | 0.341 |
| RRIRKRPPRLPRPRPRPSDTPRP | 0.322 |
| RRIRIRPPRLPRPRPRPDAHPRP | -0.136 |
| RRIRIRPPRLPRPRPRPENAPRP | -0.0916 |
| RRIRYRPPRLPRPRPRPQVTPRP | -0.00804 |
| RRIRQRPPRLPRPRPRPPANPRP | 0.409 |
| RRIRVRPPRLPRPRPRPCSSPRP | -0.201 |
| RRIRSRPPRLPRPRPRPVDKPRP | -0.175 |
| RRIRMRPPRLPRPRPRPLEQPRP | 0.446 |

| Sequence | shrunken log2 fold change |
| --- | --- |
| RRIRARPPRLPRPRPRPPYDPRP | 0.0295 |
| RRIRSRPPRLPRPRPRPLVMPRP | -0.316 |
| RRIRKRPPRLPRPRPRPFMTPRP | 0.168 |
| RRIRRRPPRLPRPRPRPMCCPRP | -0.0111 |
| RRIRIRPPRLPRPRPRPGDDPRP | 0.136 |
| RRIRARPPRLPRPRPRPWNSPRP | -0.222 |
| RRIRCRPPRLPRPRPRPEMNPRP | -0.036 |
| RRIRGRPPRLPRPRPRPSWMPRP | -0.208 |
| RRIRLRPPRLPRPRPRPEYEPRP | 0.0712 |
| RRIRERPPRLPRPRPRPYKTPRP | -0.00814 |
| RRIRLRPPRLPRPRPRPNNLPRP | -0.177 |
| RRIRVRPPRLPRPRPRPYNLPRP | -0.414 |
| RRIRIRPPRLPRPRPRPVYSPRP | -0.102 |
| RRIRCRPPRLPRPRPRPPSKPRP | 0.133 |
| RRIRPRPPRLPRPRPRPTWQPRP | 0.543 |
| RRIRERPPRLPRPRPRPYKRPRP | -0.905 |
| RRIRVRPPRLPRPRPRPTCLPRP | 0.332 |
| RRIRSRPPRLPRPRPRPFVLPRP | -0.215 |
| RRIRRRPPRLPRPRPRPRFFPRP | 0.507 |
| RRIRRRPPRLPRPRPRPCPMPRP | -0.0862 |
| RRIRLRPPRLPRPRPRPHNDPRP | -0.452 |
| RRIRQRPPRLPRPRPRPFDEPRP | -0.153 |

| Sequence | shrunken log2 fold change |
| --- | --- |
| RRIRCRPPRLPRPRPRPDSAPRP | -0.181 |
| RRIRIRPPRLPRPRPRPNKAPRP | 0.0028 |
| RRIRSRPPRLPRPRPRPMCTPRP | 0.0289 |
| RRIRDRPPRLPRPRPRPYPAPRP | -0.15 |
| RRIRNRPPRLPRPRPRPTEIPRP | -0.319 |
| RRIRWRPPRLPRPRPRPTYFPRP | -0.359 |
| RRIRVRPPRLPRPRPRPKLCPRP | -0.0766 |
| RRIRFRPPRLPRPRPRPSWGPRP | -0.243 |
| RRIRKRPPRLPRPRPRPNQWPRP | 0.274 |
| RRIRLRPPRLPRPRPRPSHAPRP | 0.212 |
| RRIRTRPPRLPRPRPRPAGIPRP | -0.0928 |
| RRIRDRPPRLPRPRPRPKWLPRP | 0.223 |
| RRIRTRPPRLPRPRPRPNGGPRP | 0.033 |
| RRIRLRPPRLPRPRPRPEMLPRP | -0.108 |
| RRIRGRPPRLPRPRPRPCYAPRP | 0.128 |
| RRIRWRPPRLPRPRPRPRLGPRP | 0.252 |
| RRIRQRPPRLPRPRPRPRNHPRP | -0.137 |
| RRIRVRPPRLPRPRPRPQTKPRP | 0.0433 |
| RRIRARPPRLPRPRPRPFHAPRP | -0.0904 |
| RRIRYRPPRLPRPRPRPARNPRP | -0.0503 |
| RRIRTRPPRLPRPRPRPDCQPRP | -0.107 |

Reference: the supplement of paper PMC9112550, “Optimization of the antimicrobial peptide Bac7 by deep mutational scanning” (BMC Biology, 2022)
